Test results taken from US11229713B2, “Methods and compositions for 18F-radiolabeling of biologics” (BRISTOL-MYERS SQUIBB COMPANY, priority 2014, dated 2022).

B1: ^18F-radiolabeled A02: ^18F-radiolabeled PD-L1 Adnectin A02 (SEQ ID NO: 2) produced as described in Example 9 (conjugate)
chain: EVVAATPTSLLISWSYDGPIDRYYRITYGETGGNSPVQEFTVPPDQKTATISGLKPGVDYTITVYAVRLEEAHYNREFPISINYRTPC
modifications: PEG4-DBCO linker, 18F-FPPEGA label; Synthetic 18F-radiolabeled PD-L1 Adnectin, A02
B2: A02 adnectin: anti-PD-L1 Adnectin, SEQ ID NO: 2, cold (unlabeled) (protein)
chain: B1 chain
modifications: Synthetic 18F-radiolabeled PD-L1 Adnectin, A02

What was measured:
PD-L1 [1] = target: T1, PD-L1 (Homo sapiens, UniProt Q9NZQ7); assay: microPET imaging of mice bearing bilateral PD-L1(+) L2987 and PD-L1(−) HT-29 xenografts; assay type: in vivo; design: introducing 1×10^6 PD-L1(+) L2987 human lung carcinoma cells; endogenous in cells; host or cells: L2987 human lung carcinoma xenografts grown subcutaneously in mice; settings: co-injected with 3 mg/kg unlabeled A02 Adnectin, 1 hour 50 minutes - 2 h post injection
Excerpt: Mice bearing bilateral xenograft tumors were produced by introducing 1×10^6 PD-L1(+) L2987 human lung carcinoma cells and 1.5×10^6 PD-L1(−) HT-29 human colon carcinoma cells subcutaneously on opposite sides of the mouse. Once tumors reached approximately 300 mm^3 (approximately 2-3 weeks after cell implantation) animals were selected for imaging. For imaging, animals were placed under anesthesia with 2% isoflurane and tail vein catheters were installed. Mice were then placed into a custom animal holder with capacity for 4 animals, where they remained under anesthesia for the duration of the study. The animal holder was transferred to the microPET® F120™ scanner (Siemens Preclinical Solutions, Knoxville, Tenn.). […]
Following the transmission scan, radiotracer solutions were administered via the previously installed tail vein catheters and a 2 hour emission image was acquired. […] Exact injected doses were calculated by taking direct measurement of the formulated dose and subtracting the radioactivity remaining in the syringe and the tail vein catheter.
In the final images, regions of interest (ROIs) were drawn around the tumor boundary using ASIPro software (Siemens Preclinical Solutions). Time-activity curves were calculated for each ROI to yield a quantitative view of radiotracer within the tumor volume over the course of the 2 hour emission image. […]

PD-L1 [2] = target: T1, PD-L1; assay: Ex vivo tissue biodistribution by gamma counter in xenograft-bearing mice; design: introducing 1×10^6 PD-L1(+) L2987 human lung carcinoma cells; endogenous in cells; host or cells: L2987 human lung carcinoma xenografts grown subcutaneously in mice
Protocol: For some studies, animals were sacrificed via cervical dislocation immediately following imaging. Necropsy was then performed on the animals, and individual tissues were collected (blood, heart, lung, liver, spleen, kidney, muscle, stomach, bone, L2987 tumor, and HT-29 tumor) into pre-weighed tubes. All tissues were then weighed again to determine the weight of each tissue. The radioactivity in each tissue was then directly measured ex vivo using a Perkin-Elmer Wizard3 gamma counter. For all tissues, measured values in counts per minute (CPM) were normalized to the injected radioactive dose for the individual animals and corrected for radioactive decay.

PD-L1 [3] = target: T1, PD-L1; assay: In vitro autoradiography blocking study in human lung tumor and xenograft tissue sections; design: PD-L1-positive L2987 human lung carcinoma cells or PD-L1-negative HT-29 human colorectal adenocarcinoma cells; endogenous in cells; host or cells: L2987 human lung carcinoma cells (HT-29 as PD-L1-negative control); settings: A02 0.025-25 nM, non-PD-L1 binding adnectin 25 nM, 1 hour room temperature
Protocol: Human lung tumor tissues were embedded in OCT and chilled in 2-methylbutane for 2-5 minutes until frozen. The samples were stored in −80° C. degree freezer until use. Human xenograft tissues were also included in the assay. Mice bearing bilateral xenografts were produced by introducing 4×10^6 PD-L1(+) L2987 cells and 1.5×10^6 PD-L1(−) HT-29 t cells subcutaneously into opposite flanks of nu/nu mice. Once resulting xenograft tumors reached appropriate size (approx. 200-300 mm^3) mice were anesthetized with 2% isoflurane and sacrificed via cervical dislocation. Fresh tumor tissues were excised, immersed into OCT and chilled in 2-methylbutane for 2-5 minutes until frozen. The tissues were then wrapped in foil/ZIPLOC® bag and stored at −80° C. until use. For all tissues (human lung tumor and xenografts) sections of 5 μm thickness (collected as 2 sections/slide) were cut using a cryostat, thaw-mounted on glass microscope slides, and allowed to air dry for approximately 30 minutes.
Blocking studies with cold (unlabeled) A02 adnectin at 0.025 nM, 0.25 nM, 2.5 nM and 25 nM respectively and 25 nM non-PD-L1 binding adnectin were conducted using the following conditions. […] Autoradiography signal from tissue-associated radioactivity was quantified from these ROIs.

T1 sequence (Q9NZQ7 19-290): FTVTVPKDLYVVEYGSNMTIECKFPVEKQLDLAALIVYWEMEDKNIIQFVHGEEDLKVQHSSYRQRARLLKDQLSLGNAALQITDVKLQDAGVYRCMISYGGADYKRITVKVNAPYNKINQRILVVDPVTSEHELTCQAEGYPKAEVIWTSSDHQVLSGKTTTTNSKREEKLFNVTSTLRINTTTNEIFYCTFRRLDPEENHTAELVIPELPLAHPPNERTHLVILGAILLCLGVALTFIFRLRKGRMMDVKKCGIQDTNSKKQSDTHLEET

| Molecule | radiotracer uptake in PD-L1(+) L2987 xenografts relative to PD-L1(−) HT-29 xenografts, blocked (PD-L1 [1]) | tissue with higher uptake than the PD-L1(+) tumor (PD-L1 [2]; ex vivo gamma counter) | uptake in PD-L1(+) L2987 xenografts compared to PD-L1(−) HT-29 xenografts, ex vivo (PD-L1 [2]; necropsy immediately after imaging, gamma counter) | displacement / blockade of 0.25 nM ^18F-A02 adnectin radioligand compared to total binding (PD-L1 [3]) |
| --- | --- | --- | --- | --- |
| B1 | 1.04 × | kidney | clear differential uptake |  |
| B2 |  |  |  | dose dependent displacement |
